How the values were obtained:
[1] = molecular target: HexaPro spike without foldon (SARS-CoV-2 (Wuhan-Hu-1)) (UniProt P0DTC2); assay: SEC
[2] = molecular target: HexaPro, soluble SARS-CoV-2 spike ectodomain carrying a foldon domain (SARS-CoV-2 (Wuhan-Hu-1) | not stated) (UniProt P0DTC2); assay: SEC
[3] = molecular target: HexaPro, soluble SARS-CoV-2 spike ectodomain carrying a foldon domain (SARS-CoV-2 (Wuhan-Hu-1) | not stated) (UniProt P0DTC2); assay: SEC-MALS
[4] = molecular target: S-3P, soluble SARS-CoV-2 spike ectodomain with C-terminal foldon trimerization domain (SARS-CoV-2 (Wuhan-Hu-1) | not stated) (UniProt P0DTC2); assay: SEC
[5] = molecular target: S-3P, soluble SARS-CoV-2 spike ectodomain with C-terminal foldon trimerization domain (SARS-CoV-2 (Wuhan-Hu-1) | not stated) (UniProt P0DTC2); assay: SEC-MALS
[6] = molecular target: S-locked, soluble SARS-CoV-2 spike ectodomain with the disulfide 413C-987C that locks the RBD in the closed conformation, without heterologous trimerization domain (SARS-CoV-2 (Wuhan-Hu-1)) (UniProt P0DTC2); assay: SEC-MALS

## HexaPro spike without foldon (from UniProt P0DTC2 14-1208)
[1]
  stoichiometry N: 3

## HexaPro, soluble SARS-CoV-2 spike ectodomain carrying a foldon domain (from UniProt P0DTC2 14-1208)
[2]
  stoichiometry N: 3
[3]
  stoichiometry N: 3

## S-3P, soluble SARS-CoV-2 spike ectodomain with C-terminal foldon trimerization domain (from UniProt P0DTC2 14-1208)
[4]
  stoichiometry N: 3
[5]
  stoichiometry N: 3

## S-locked, soluble SARS-CoV-2 spike ectodomain with the disulfide 413C-987C that locks the RBD in the closed conformation, without heterologous trimerization domain (from UniProt P0DTC2 14-1208)
[6]
  stoichiometry N: 3

— PMC10923862
